Data taken from US11427805B2, “Methods of producing human foregut endoderm cells expressing PDX1 from human definitive endoderm” (ViaCyte, Inc., priority 2005, dated 2022).

What was measured:
Assay type in all cases: cell-based, human
AFP gene expression = experiment: Q-PCR of AFP gene expression in differentiating hESCs
Experimental: (§1) In the following experiments, real-time quantitative RT-PCR (Q-PCR) was the primary assay used for screening the effects of various treatments on hESC differentiation. In particular, real-time measurements of gene expression were analyzed for multiple marker genes at multiple time points by Q-PCR. Marker genes characteristic of the desired as well as undesired cell types were evaluated to gain a better understanding of the overall dynamics of the cellular populations. The strength of Q-PCR analysis includes its extreme sensitivity and relative ease of developing the necessary markers, as the genome sequence is readily available. Furthermore, the extremely high sensitivity of Q-PCR permits detection of gene expression from a relatively small number of cells within a much larger population. In addition, the ability to detect very low levels of gene expression provides indications for “differentiation bias” within the population. The bias towards a particular differentiation pathway, prior to the overt differentiation of those cellular phenotypes, is unrecognizable using immunocytochemical techniques. […] Additionally, Q-PCR provides a mechanism by which to evaluate the success of a differentiation protocol in a quantitative format at semi-high throughput scales of analysis.
To generate PCR template, total RNA was isolated using RNeasy (Qiagen) and quantitated using RiboGreen (Molecular Probes). Reverse transcription from 350-500 ng of total RNA was carried out using the iScript reverse transcriptase kit (BioRad), which contains a mix of oligo-dT and random primers. […] Fluorescence data was collected during the last 15 seconds of each extension phase. A three point, 10-fold dilution series was used to generate the standard curve for each run and cycle thresholds (Ct's) were converted to quantitative values based on this standard curve. The quantitated values for each sample were normalized to housekeeping gene performance and then average and standard deviations were calculated for triplicate samples. […]

definitive endoderm = experiment: Dorsal / ventral / PDX1-negative foregut endoderm differentiation from definitive endoderm (marker gene expression); details: first four days of differentiation (FIGS. 51A, 51B)
Experimental: Definitive endoderm was produced from undifferentiated hESCs using a three or five day protocol in which activin A was provided to the culture medium at a concentration of 100 ng/ml each day. For both dorsal and ventral differentiation, the medium composition for the first five days was as follows: Day 1—RPMI+0% fetal bovine serum (FBS), Day 2—RPMI+0.2% PBS, Day 3—RPMI+2.0% FBS, Day 4—RPMI+2.0% FBS and Day 5—RPMI+2.0% FBS. For the ventral differentiation, definitive endoderm was produced for 3 days in activin A at 100 ng/ml and then exposed to BMP4 at 3 ng/ml and FGF10 at 50 ng/ml. […] For the dorsal differentiation procedure, definitive endoderm was produced for 5 days in activin A at 100 ng/ml and then exposed to retinoic acid (RA) at 2 μM and activin A at 25 ng/ml in CMRL medium containing B27 supplement (1:200).
Four separate conditions were used to treat hESCs that result in varying proportions of differentiation to definitive endoderm. All four conditions utilized RPMI supplemented with 0% FBS on the first day, 0.2% FBS on second day, and 2% FBS on days 3 and 4. The four conditions were as follows: (a) BMP4 at 100 ng/mL with SU5402 at 5 μM; (b) no exogenous growth factors; (c) activin A at 15 ng/mL; and (d) activin A at 100 ng/ml. […] All cultures were then incubated for 2 days with BMP4 at 3 ng/mL, FGF10 at 50 ng/ml and KAAD-cyclopamine at 0.5 μM in a base medium of 2% FBS in RPMI followed by 6 days with BMP4 at 3 ng/mL, FGF10 at 50 ng/ml and KAAD-cyclopamine at 0.5 μM in a base medium composed of CMRL with 1:200 dilution of B27 extract.
Definitive endoderm was produced by exposing undifferentiated hESCs to activin at 100 ng/mL in RPMI base medium supplemented with 0%, 0.2%, and 2% FBS on days 1 through 3, respectively. After 3 days of activin A treatment, the cultures were switched to a base medium composed of RPMI containing 2% FBS and maintained under one of the following conditions: (a) BMP4 at 3 ng/ml with FGF10 at 50 ng/ml and KAAD-cyclopamine at 0.5 μM; (b) FGF10 at 50 ng/ml and KAAD-cyclopamine at 0.5 μM; or (c-e) no exogenous factors. After two days, the base medium was changed to CMRL plus B27 supplement (1:200) and cells were maintained according to conditions (a-c) above. Alternatively, cells were maintained with no exogenous factors in RPMI with B27 supplement (1:200) (condition (d)) or RPMI with 2% FBS (condition (e)). The same factor treatment conditions were maintained for 8 more days of differentiation.
Human embryonic stem cells were differentiated for 7 days via a 2-step protocol to achieve PDX1 cells. The first step comprised 5 days differentiation in activin A (100 ng/ml) to robustly produce DE (D'Amour, K., et al., Nature Biotechnology 23, 1534-1541, (2005)). […]

SOX17 gene expression = experiment: Q-PCR of SOX17 gene expression in differentiating hESCs
Experimental: as §1
The approach taken here was to perform relative quantitation using SYBR Green chemistry on a Rotor Gene 3000 instrument (Corbett Research) and a two-step RT-PCR format. Such an approach allowed for the banking of cDNA samples for analysis of additional marker genes in the future, thus avoiding variability in the reverse transcription efficiency between samples.
To generate PCR template, total RNA was isolated using RNeasy (Qiagen) and quantitated using RiboGreen (Molecular Probes). Reverse transcription from 350-500 ng of total RNA was carried out using the iScript reverse transcriptase kit (BioRad), which contains a mix of oligo-dT and random primers. Each 20 μL reaction was subsequently diluted up to 100 μL total volume and 3 μL was used in each 10 μL Q-PCR reaction containing 400 nM forward and reverse primers and 5 μL 2×SYBR Green master mix (Qiagen). Two step cycling parameters were used employing a 5 second denature at 85-94° C. (specifically selected according to the melting temp of the amplicon for each primer set) followed by a 45 second anneal/extend at 60° C. Fluorescence data was collected during the last 15 seconds of each extension phase. A three point, 10-fold dilution series was used to generate the standard curve for each run and cycle thresholds (Ct's) were converted to quantitative values based on this standard curve. The quantitated values for each sample were normalized to housekeeping gene performance and then average and standard deviations were calculated for triplicate samples. At the conclusion of PCR cycling, a melt curve analysis was performed to ascertain the specificity of the reaction. A single specific product was indicated by a single peak at the Tm appropriate for that PCR amplicon.
A first step in establishing the Q-PCR methodology was validation of appropriate housekeeping genes (HGs) in the experimental system. […] We measured the expression levels of Cyclophilin G, hypoxanthine phosphoribosyltransferase 1 (HPRT), beta-2-microglobulin, hydroxymethylbiane synthase (HMBS), TATA-binding protein (TBP), and glucoronidase beta (GUS) in differentiating hESCs. […] We routinely used both Cyclophilin G and GUS to calculate a normalization factor for all samples. The use of multiple HGs simultaneously reduces the variability inherent to the normalization process and increases the reliability of the relative gene expression values.
We were the first to analyze and describe the effect of TGFβ family growth factors, such as Nodal/activin/BMP, for use in creating definitive endoderm cells from embryonic stem cells in in vitro cell cultures. […]

hESCs [1] = experiment: CXCR4+ cell number by flow cytometry; details: 0, 10, or 100 ng/ml, 7 days (FIGS. 30A-C)
Experimental: hESCs were differentiated in RPMI media supplemented with 0.5%-2% FBS (increased from 0.5% to 1.0% to 2.0% over the first 3 days of differentiation) and either 0, 10, or 100 ng/ml of activin A. After 7 days of differentiation the cells were dissociated in PBS without Ca^2+/Mg^2+ containing 2% FBS and 2 mM (EDTA) for 5 minutes at room temperature. The cells were filtered through 35 μm nylon filters, counted and pelleted. Pellets were resuspended in a small volume of 50% human serum/50% normal donkey serum and incubated for 2 minutes on ice to block non-specific antibody binding sites. To this, 1 μl of mouse anti-CXCR4 antibody (Abcam, cat # ab10403-100) was added per 50 μl (containing approximately 10^5 cells) and labeling proceeded for 45 minutes on ice. Cells were washed by adding 5 ml of PBS containing 2% human serum (buffer) and pelleted. A second wash with 5 ml of buffer was completed then cells were resuspended in 50 μl buffer per 10^5 cells. […] Cells were resuspended at 5×10^6 cells/ml in buffer and analyzed and sorted using a FACS Vantage (Beckton Dickenson) by the staff at the flow cytometry core facility (The Scripps Research Institute). Cells were collected directly into RLT lysis buffer (Qiagen) for subsequent isolation of total RNA for gene expression analysis by real-time quantitative PCR.

CXCR4 gene expression = experiment: Q-PCR of CXCR4 gene expression in differentiating hESCs
Experimental: In these experiments, hESCs were differentiated by growing in RPMI medium (Invitrogen, Carlsbad, Calif.; cat #61870-036) supplemented with 0.5%, 2.0% or 10% FBS and either with or without 100 ng/ml activin A for 6 days. In addition, a gradient of FBS ranging from 0.5% to 2.0% over the first three days of differentiation was also used in conjunction with 100 ng/ml of activin A. After the 6 days, replicate samples were collected from each culture condition and analyzed for relative gene expression by real-time quantitative PCR. The remaining cells were fixed for immunofluorescent detection of SOX17 protein.
hESCs were differentiated in RPMI media supplemented with 0.5%-2% FBS (increased from 0.5% to 1.0% to 2.0% over the first 3 days of differentiation) and either 0, 10, or 100 ng/ml of activin A. After 7 days of differentiation the cells were dissociated in PBS without Ca^2+/Mg^2+ containing 2% FBS and 2 mM (EDTA) for 5 minutes at room temperature. The cells were filtered through 35 μm nylon filters, counted and pelleted. […] Cells were resuspended at 5×10^6 cells/ml in buffer and analyzed and sorted using a FACS Vantage (Beckton Dickenson) by the staff at the flow cytometry core facility (The Scripps Research Institute). Cells were collected directly into RLT lysis buffer (Qiagen) for subsequent isolation of total RNA for gene expression analysis by real-time quantitative PCR.

hESCs [2] = experiment: AFP antibody-labeled cell number by flow cytometry; details: FIGS. 9A-B
Text: As a further evidence of the specificity of the SOX17^hi/AFP^lo/TM^lo/SPARC^lo marker profile as predictive of definitive endoderm, SOX17 and AFP gene expression was quantitatively compared to the relative number of antibody labeled cells.

B1: activin A (protein, UniProt P08476 311-426, looked up)
Inhibin beta A chain: GLECDGKVNICCKKQFFVSFKDIGWNDWIIAPSGYHANYCEGECPSHIAGTSGSSLSFHSTVINHYRMRGHSPFANLKSCCVPTKLRPMSMLYYDDGQNIIKKDIQNMIVEECGCS
modifications: Inhibin beta A chain
- suppression of AFP gene expression in comparison to no treatment (AFP gene expression; FIG. 8A): 6.8 fold
- difference in AFP gene expression levels, activin A vs random differentiation in 10% FBS (AFP gene expression; FIG. 8A legend): approximately 7 fold
- expression of the visceral endoderm marker AFP (AFP gene expression; activin A dose series (FIG. 13A)): dose-dependent decrease
- definitive endoderm production (CER and SOX17 gene expression) (definitive endoderm): robust definitive endoderm differentiation
- dose dependence of SOX17 gene expression (SOX17 gene expression; 0, 10, 30 or 100 ng/ml (FIG. 11)): dose-dependently increases SOX17 gene expression
- SOX17 induction compared to no factor medium controls (SOX17 gene expression; 4-day time point): 5 fold
- SOX17 gene expression relative to the undifferentiated control media (SR20) (SOX17 gene expression; FIG. 7A): increases SOX17 gene expression
- induction of SOX17 gene expression vs. undifferentiated hESCs (SOX17 gene expression; day 4 of differentiation / four days of exposure, activin A at 100 ng/ml, 10% serum medium (FIGS. 19, 21)): 19 fold
- difference in the level of SOX17 mRNA expression (SOX17 gene expression; hESCs treated with activin A vs retinoic acid (FIG. 7A)): 10 fold
- number of CXCR4+ cells as determined by flow cytometry (hESCs [1]): increase dramatically
- relative levels of CXCR4 gene expression (CXCR4 gene expression; 0, 10, or 100 ng/ml, 7 days (FIG. 32)): dramatically increased with increasing dose
- CXCR4 expression (CXCR4 gene expression; 100 ng/ml (A100) vs no exogenous activin A (NF), 6 days (FIG. 26)): high
- decrease in AFP antibody-labeled cell number as measured by flow cytometry (hESCs [2]): approximately 7 fold
